Molecular target: SF162 soluble Env gp140 trimer (HIV-1 isolate SF162 (clade B))
Assay: SPR; 1273 RUs of SF162 gp140 trimer amine-coupled on a CM5 chip; dual injection, 3 µM 4E10 Fv flowed 5 minutes before and during 10 nM Fab b12 or 447-52D; HBS-EP+, 25°C

## 4E10 Fv
  response bound at 3 µM 4E10 Fv: 90 RUs

Reference: article PMC4177983
